Source: IntAct's records for PubMed 28441531

B1: Myelin regulatory factor homolog 1 (Caenorhabditis elegans), G5EFI7 (parent)
chain: MSSSDLLKGEFDGLNSEHFNMMQYLTQDTDEDDGSMVSPTSSADSMHQNLGVQQQQQQMLQAQQRQNQNGIFQPRRFPESPAMTDPCGNVSSSSSSSHHSDPMFSPNEFNGYAGANDNGNQTMNNIQSQQLSQQQHQQTRGGNLMMPQQSSIHAQMQNMNAPQFWSQPGTAAVNQPTNTLAQLNLFNIIRGGADSGMPSPVLEMPRKRSRLDTPCETPRIAPSFAGIDGFPDENYSQQQAIRFSKFQEEQWSPLYDINAQPLQQLQVHVVADKGFNYNSNDNCFVNQKKNHFQISVNVEASDTMPPKYVNFNNRLVPIRDFKLSFCGVKAEMPSSEITIRQSRADRKPHTHTPVLFEIQERRMTKVCVPRLHFSETTLNNQRKQKNRPNPEQKFFLLVVRLFASIDESEHGVLIQSYASEKVIVRATNPGSFEPQDTDIGWQRNGGALYTQGAVSVGTEHQVESAKLTVAGDIYMSGRIINPSDIRLKEAITERETAEAIENLLKLRVVDYRYKPEVADIWGLDEQQRHRTGLIAQELQAVLPDAVRDIGDYLTIDEGRVFYETVMATQQLCRMTGDLDSKIDEKVAEISRRLNEYAVRKKLASSMASNLNGDNKSLSYSRCSLTSTATNATSQPKRSRKHRAIKQAQSCGSRLSQGTVVTLVSIMAACLLAMSALYVLDWHNRNYGYHQHFETNTPSTKGELANLVISPANFMPSFQPDAPILLEKCFNPSCKTYCCTDTPPVVEDSRAIATHGLDNGDEVYPESPSNRTNGIARAPNLEHMAFETGVEIRIPALNVTLDQRYCVERSCNKRKGIFNVFVPVSRYMPDVALEIEIKAPISKVVSNCGAFPSTEFNHKVCPLSRTQQSESPVPTSTRLFDNIFELSMGSFIQSAYRFRVGYSTETCFSEDSNGSYEEYNLIFYRMCTLSSS
partner: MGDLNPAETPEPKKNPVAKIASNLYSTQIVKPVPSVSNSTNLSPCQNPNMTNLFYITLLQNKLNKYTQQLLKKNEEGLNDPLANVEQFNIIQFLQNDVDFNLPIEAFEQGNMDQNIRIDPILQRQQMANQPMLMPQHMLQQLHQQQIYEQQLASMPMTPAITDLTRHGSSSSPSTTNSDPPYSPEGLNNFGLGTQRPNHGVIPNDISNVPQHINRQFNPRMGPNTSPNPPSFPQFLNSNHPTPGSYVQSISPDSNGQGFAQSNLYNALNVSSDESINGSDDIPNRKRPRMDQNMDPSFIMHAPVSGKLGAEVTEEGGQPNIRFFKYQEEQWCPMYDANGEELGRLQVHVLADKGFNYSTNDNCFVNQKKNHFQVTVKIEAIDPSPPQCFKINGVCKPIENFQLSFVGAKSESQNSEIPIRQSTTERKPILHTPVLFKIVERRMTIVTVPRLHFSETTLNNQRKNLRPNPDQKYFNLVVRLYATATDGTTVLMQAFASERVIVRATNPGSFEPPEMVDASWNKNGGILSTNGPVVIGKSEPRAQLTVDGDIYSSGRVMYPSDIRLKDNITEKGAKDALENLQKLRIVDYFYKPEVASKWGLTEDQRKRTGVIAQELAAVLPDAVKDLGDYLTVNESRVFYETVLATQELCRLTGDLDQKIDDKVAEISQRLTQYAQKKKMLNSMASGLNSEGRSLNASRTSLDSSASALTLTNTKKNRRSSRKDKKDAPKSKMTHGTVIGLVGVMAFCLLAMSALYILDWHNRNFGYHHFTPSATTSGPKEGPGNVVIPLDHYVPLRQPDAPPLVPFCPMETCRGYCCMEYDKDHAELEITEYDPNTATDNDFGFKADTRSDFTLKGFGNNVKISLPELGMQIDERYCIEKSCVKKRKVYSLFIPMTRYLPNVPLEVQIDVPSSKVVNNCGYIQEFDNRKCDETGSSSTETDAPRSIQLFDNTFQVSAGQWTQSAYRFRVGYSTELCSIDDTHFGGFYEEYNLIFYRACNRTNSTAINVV

Variants of: B1
Settings: with myrf2_caeel myrf-2, D9PTN5

Row | effect of a mutation on the interaction | Variant
1 | with no effect | G274R
